Measured values reported in article PMC6669920, “Identification of a basal system for unwinding a bacterial chromosome origin”.

B1: Wild-type short scaffold (DnaA-box#6/7 + DnaA-trios), oHM752/oHM590/oHM558 (dsDNA)
DNA 1: ACTTATCCACAAATCCACAGGCCC
DNA 2: TACTATTACTTCTACTA
DNA 3: TAGTAGAAGTAATAGTAGGGCCTGTGGATTTGTGGATAAGT
B2: ΔDnaA-boxes long scaffold, oHM753/oHM590/oHM754 (dsDNA)
DNA 1: CGTTCGGCTGCGGCGAGCGGTATCAGCTCACTCAAAGGCGGTAATACGGCTTCCTTGCTTCCTTGCGGCCC
DNA 2: TACTATTACTTCTACTA
DNA 3: TAGTAGAAGTAATAGTAGGGCCGCAAGGAAGCAAGGAAGCCGTATTACCGCCTTTGAGTGAGCTGATACCGCTCGCCGCAGCCGAACG

Key:
DnaA I190A = DnaA I190A (Bacillus subtilis, UniProt P05648 1-446, I190A); assay: EMSA; 1 mM ADP; shift similar to wild-type; EMSA: 25 nM scaffold, 0-250 nM DnaA, 10 mM HEPES-KOH pH 8, 100 mM potassium glutamate, 1 mM magnesium acetate, 30% glycerol, 10% DMSO, 1 mM ADP or ATP, 20°C 2 h; 6% PAGE in 45 mM Tris, 45 mM boric acid, 5 mM MgCl2; conditions: protein: recombinant; tags: N-terminal His-tag removed with Factor Xa; label: 5' Cy3 on strand 1; 5' Cy5 on strand 2; blunt; 3 strands, nick between strands 1 and 2, both annealed to strand 3
DnaA wild-type [1] = target: T1, DnaA wild-type (Bacillus subtilis, UniProt P05648 1-446); assay: EMSA; 1 mM ADP; single shifted species; EMSA: 25 nM scaffold, 0-250 nM DnaA, 10 mM HEPES-KOH pH 8, 100 mM potassium glutamate, 1 mM magnesium acetate, 30% glycerol, 10% DMSO, 1 mM ADP or ATP, 20°C 2 h; 6% PAGE in 45 mM Tris, 45 mM boric acid, 5 mM MgCl2; conditions: protein: recombinant; tags: N-terminal His-tag removed with Factor Xa; label: 5' Cy3 on strand 1; 5' Cy5 on strand 2; blunt; 3 strands, nick between strands 1 and 2, both annealed to strand 3
DnaA wild-type [2] = target: T1, DnaA wild-type; assay: EMSA; 1 mM ADP; up to 250 nM DnaA; EMSA: 25 nM scaffold, 0-250 nM DnaA, 10 mM HEPES-KOH pH 8, 100 mM potassium glutamate, 1 mM magnesium acetate, 30% glycerol, 10% DMSO, 1 mM ADP or ATP, 20°C 2 h; 6% PAGE in 45 mM Tris, 45 mM boric acid, 5 mM MgCl2; conditions: protein: recombinant; tags: N-terminal His-tag removed with Factor Xa; label: 5' Cy5 on strand 2; blunt; 3 strands, nick between strands 1 and 2, both annealed to strand 3

Binder | binding result (DnaA I190A) | binding result (DnaA wild-type [1]) | binding result (DnaA wild-type [2])
B1 | binds | binds | 
B2 |  |  | no binding
